Source: paper PMC4440519, “Cloning and characterization of farnesyl pyrophosphate synthase from the highly branched isoprenoid producing diatom Rhizosolenia setigera” (Scientific Reports, 2015)

Assays:
[1] = substrate: CC(C)=CCOP(=O)(O)OP(=O)(O)O; assay: LC/MS quantification of FPP formed; assay type: biochemical, Sundstroemia setigera; conditions: IPP 50 μM constant, 35 mM Tris-HCl pH 7.5, 10 mM MgCl2, 4 mM DTT, 30 °C
[2] = substrate: CC(C)=CCC/C(C)=C/COP(=O)(O)OP(=O)(O)O; assay: LC/MS quantification of FPP formed; assay type: biochemical, Sundstroemia setigera; conditions: IPP 50 μM constant, 35 mM Tris-HCl pH 7.5, 10 mM MgCl2, 4 mM DTT, 30 °C
[3] = substrate: C=C(C)CCO[P@@](=O)(O)OP(=O)(O)O; assay: purified protein; conditions: DMAPP 50 μM constant, 35 mM Tris-HCl pH 7.5, 10 mM MgCl2, 4 mM DTT, 30 °C

B1: RsFPPS (Sundstroemia setigera) (protein)
chain: VSSLPPIIAGAAIYRLVSSKTLPDLTSAFFELEIPDQISLLSLLFASVFSAVSISGFIAPPGHNDDDDEDEHKPPFQYPLKEIASKTTDKEKFLSVYPCLRDSIAEYFATKHEMVPEGVNWITEMIDYSCVGGKMNRGITVLTVARTLSGSSGLTPREEARASVVGWGIEFLQAFFLVADDLMDDSKTRRGQPCWYLLPKVGTIAVNDSFLLESFVFTFLKEHFGKEPYYIKLVELFLETIQQTECGQLLDLTSQPKDAKTADLSRFTIERYRKIVKYKTAFYSFYLPVASAMLMSGVTNSKSFKTARNICCIMGEYFQIQDDVLDCYGTPEVIGKVGTDIQDNKCSWLIVQALDRATPEQRKVIEENYGKWDDAKVAKIKAIYNEMGLKSVFEKYEEDSYAEIQEELKKINDIPQEVFTLFLDKIYKRSK
notes: kcat calculated for dimer
Km [1]: 10.6 ± 2.3 µM | kcat [1]: 343.8 ± 18.23 min⁻¹ | Km [2]: 63.0 ± 7.5 µM | kcat [2]: 2610.0 ± 133.7 min⁻¹ | Km [3]: 21.5 ± 6.7 µM | kcat [3]: 371.5 ± 34.43 min⁻¹
